Patent US5985836A, “Alpha-1 proteinase inhibitor binding peptides” (Bayer Corporation, priority 1998, dated 1999)
One block for each substance: values may come before it. Ends that are not written are not given here.

What was measured:
A1PI [1] = biological target: T1, A1PI (Homo sapiens, UniProt P01009); test: Purification of A1PI from Effluent II+III on peptide column, A1PI mass balance; format: binding; settings: 1 ml Eff. II+III, 4° C.
T1 construct: Human plasma is currently the only approved source of therapeutic AlPI
Description: (§1) Sequences 1-11 and 15 were assayed with Effluent II+III (Eff. II+III). Eff. II+III is a process intermediate in the Cohn plasma fractionation process. The feed stream contains 20% (by volume) ethanol, 20-25 mg/ml hSA and approximately 1 mg/ml AlPI. The stream also contains other proteins including anti-thrombin III (AT3), immunoglobin G (IgG), immunoglobin A (IgA), apolipoprotein alpha-1 (Apo A-1), transferrin (Trf), haptoglobin (Hpt), and alpha-1 acid glycoprotein (AAG) at concentrations ranging from 0.1-1 mg/ml.
(§2) The columns were assayed using the same technique as the hSA+AlPI experiments, allowing for a 10 minute residence time followed by a constant flow rate of 865 μl/min with step elutions of 1M NaCl, 3M NaCl, and 2% acetic acid. All experiments were conducted at 4° C. The mass balances for the injection of 1 ml Eff. […] The AlPI was enriched from 3% of the total protein in the feed to upwards of 50% in the acid eluate.

A1PI [2] = biological target: T1, A1PI; test: A1PI binding on peptide-resin column, injection of 1 mg A1PI in equilibration buffer
Procedure, shortened: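 Peptides synthesized on A-Totda-Toyopearl chelate resin (0.1 mmole/g) packed in 0.4×5 cm columns; 1 mg A1PI injected in equilibration buffer at 4 °C or 20 °C, 865 or 523 μl/min. Flowthrough, 1M/3M NaCl washes and 2% acetic acid eluate quantified by A280 or immunonephelometry as percent of total eluted.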

[3] = biological target: T2, apolipoprotein alpha-1 (Apo A-1) (Homo sapiens, UniProt P02647); test: Purification from Effluent II+III, Apo A-1 mass balance; format: binding; settings: 1 ml Eff. II+III, 4° C.
T2 construct: Eff; II+III is a process intermediate in the Cohn plasma fractionation process; tissue Bayer Corporation (Clayton, N.C.); host or cells: plasma fraction: Cohn Effluent II+III
Description: as §1, §2

A1PI [4] = biological target: T1, A1PI; test: A1PI purification from 5 mg hSA + 1 mg A1PI on peptide column, A1PI mass balance; format: binding; settings: A1PI, 5 mg hSA + 1 mg A1PI; for Percent Eluted by Fraction, 1M NaCl / Percent Eluted by Fraction, 2% Ac. Acid / Percent Eluted by Fraction, 3M NaCl / Percent Eluted by Fraction, Flow: relative to total eluted
Description: Confirmatory binding assays were performed in a column chromatographic format on a microbore HPLC using individual peptide sequences synthesized directly onto the Toyopearl 650 M Chelate resin which had been modified with Totda followed by an alanine residue (A-Totda-Toyopearl), at a final substitution density of 0.1 mmole/g resin. The resin was packed into 0.4×5 cm columns (Thomson, Springfield, Va.) and tested on the Michrom HPLC system (Michrom BioResources, Auburn, Calif.). The elution program for all trials utilized the following method. The column was pre-equilibrated with equilibration buffer (as above). 1 ml of sample was injected and allowed sufficient time to flowthrough the column using equilibration buffer. The column was then washed with step elutions of 1M NaCl and 3M NaCl in equilibration buffer. The column was exposed to equilibration buffer with 0.1M NaCl. Any remaining protein was eluted with elution buffer (2% by volume glacial acetic acid in water).
A Gilson FC204 fraction collector at the HPLC outlet collected individual eluates for further analysis. Fractions collected from the 2% acetic acid eluates were neutralized with 2M Tris, pH 10.5 to bring the pH to neutrality. The protein samples were reconstituted in equilibration buffer unless otherwise stated. The samples were analyzed by the integration of the absorbance at 280 nm or by immunonephelometry. The specific method of determination is presented for each figure.
Columns were assayed with a mixture of 5 mg human serum albumin (hSA)+1 mg AlPI at 4° C. (Table 4, Seq. ID 1-11, 15, 17) and 20° C. (Table 5, Seq. ID 1-10, 13, 15, 17). The chromatography method was modified to provide for a 10 minute residence time of sample in the column by decreasing the flow to 17 μl/min (10 cm/hr) upon injection. Following the incubation, the flow was set at 865 μl/min (413 cm/hr) for the step elutions of 1M NaCl, 3M NaCl, and 2% acetic acid. The mass balances presented are based upon immunonephelometry. The Percent Eluted value is protein-specific and based on the amount of the protein eluted in a […]

Immunoglobulin A (IgA) = test: Purification from Effluent II+III, IgA mass balance; format: binding, human; settings: 1 ml Eff. II+III, 4° C.
Description: as §1, §2

[5] = Table 11, * Below detection limit
[6] = Trp position mutations, 1 mg A1PI, 4° C.
[7] = * as in Tables 4, 5 (below detection limit)
[8] = 20° C., * Below detection limit
[9] = A1PI, * as in Tables 4, 5 (below detection limit)
[10] = 1 mg A1PI in equilibration buffer, 4° C.
[11] = 1 mg A1PI in equilibration buffer, 20° C.

T2 sequence (P02647 19-267): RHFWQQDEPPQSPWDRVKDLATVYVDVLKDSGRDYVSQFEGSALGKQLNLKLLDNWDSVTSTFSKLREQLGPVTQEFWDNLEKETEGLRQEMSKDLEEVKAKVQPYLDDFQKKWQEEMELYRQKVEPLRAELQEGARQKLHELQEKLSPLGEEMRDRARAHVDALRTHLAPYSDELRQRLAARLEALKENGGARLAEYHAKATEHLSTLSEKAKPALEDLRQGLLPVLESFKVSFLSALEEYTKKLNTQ
T1 sequence (P01009 25-418): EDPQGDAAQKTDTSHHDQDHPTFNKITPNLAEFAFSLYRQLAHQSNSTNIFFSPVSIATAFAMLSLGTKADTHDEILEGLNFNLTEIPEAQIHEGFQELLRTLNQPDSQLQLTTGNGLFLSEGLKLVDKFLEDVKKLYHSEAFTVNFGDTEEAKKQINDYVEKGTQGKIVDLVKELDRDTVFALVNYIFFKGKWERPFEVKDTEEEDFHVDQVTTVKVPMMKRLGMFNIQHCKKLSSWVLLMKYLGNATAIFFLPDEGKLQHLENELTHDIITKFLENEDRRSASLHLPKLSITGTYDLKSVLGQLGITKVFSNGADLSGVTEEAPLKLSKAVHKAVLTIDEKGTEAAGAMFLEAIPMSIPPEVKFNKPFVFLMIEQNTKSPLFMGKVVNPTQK

Mass A1PI per Eluate Fraction, 1M NaCl (A1PI [1]; [5]): 0.04 mg
Mass A1PI per Eluate Fraction, 2% Acetic Acid (A1PI [1]; [5]): 0.50 mg
Mass A1PI per Eluate Fraction, Flowthrough (A1PI [1]; [5]): 0.31 mg
Percent Eluted by Fraction, 1M NaCl (A1PI [1]; Table 11, A1PI): 4%
Percent Eluted by Fraction, 2% Acetic Acid (A1PI [1]; Table 11, A1PI): 59%
Percent Eluted by Fraction, Flowthrough (A1PI [1]; Table 11, A1PI): 37%
% of Total A1PI Eluted by Fraction (Based on Absorbance at 280 nm), 1M NaCl (A1PI [2]; [6]): 5%
% of Total A1PI Eluted by Fraction (Based on Absorbance at 280 nm), 2% Acetic Acid (A1PI [2]; [6]): 95%
% of Total A1PI Eluted by Fraction (Based on Absorbance at 280 nm), Flowthrough (A1PI [2]; [6]): 0%
Substance: V I V L V R: VIWLVR with Trp at position 3 replaced by Val (VIVLVR)

Percent Eluted by Fraction, 1M NaCl [3]: 0%
Percent Eluted by Fraction, 2% Acetic Acid [3]: 100%
Percent Eluted by Fraction, 3M NaCl [3]: 0%
Percent Eluted by Fraction, Flow [3]: 0%
Mass Protein per Eluate Fraction, 2% Acetic Acid [3, 7]: 0.31 mg
Mass Protein per Eluate Fraction, 1M NaCl (A1PI [4]; 4° C., * Below detection limit): 0.28 mg
Mass Protein per Eluate Fraction, 2% Ac. Acid (A1PI [4]; 4° C., * Below detection limit): 0.46 mg
Mass Protein per Eluate Fraction, 3M NaCl (A1PI [4]; 4° C., * Below detection limit): 0.04 mg
Percent Eluted by Fraction, 1M NaCl (A1PI [4]; 4° C.): 36%
Percent Eluted by Fraction, 2% Ac. Acid (A1PI [4]; 4° C.): 60%
Percent Eluted by Fraction, 3M NaCl (A1PI [4]; 4° C.): 5%
Percent Eluted by Fraction, Flow (A1PI [4]; 4° C.): 0%
Mass Protein per Eluate Fraction, 1M NaCl (A1PI [4]; [8]): 0.16 mg
Mass Protein per Eluate Fraction, 2% Ac. Acid (A1PI [4]; [8]): 0.30 mg
Mass Protein per Eluate Fraction, Flow (A1PI [4]; [8]): 0.41 mg
Percent Eluted by Fraction, 1M NaCl (A1PI [4]; 20° C.): 18%
Percent Eluted by Fraction, 2% Ac. Acid (A1PI [4]; 20° C.): 34%
Percent Eluted by Fraction, 3M NaCl (A1PI [4]; 20° C.): 0%
Percent Eluted by Fraction, Flow (A1PI [4]; 20° C.): 48%
Percent Eluted by Fraction, 1M NaCl (A1PI [1]; A1PI): 5%
Percent Eluted by Fraction, 2% Acetic Acid (A1PI [1]; A1PI): 81%
Percent Eluted by Fraction, 3M NaCl (A1PI [1]; A1PI): 0%
Percent Eluted by Fraction, Flow (A1PI [1]; A1PI): 14%
Mass Protein per Eluate Fraction, 1M NaCl (A1PI [1]; [9]): 0.06 mg
Mass Protein per Eluate Fraction, 2% Acetic Acid (A1PI [1]; [9]): 0.92 mg
Mass Protein per Eluate Fraction, Flow (A1PI [1]; [9]): 0.16 mg
Percent A1PI Eluted by Fraction Based on Absorbance at 280 nm, 1M NaCl (A1PI [2]; [10]): 64%
Percent A1PI Eluted by Fraction Based on Absorbance at 280 nm, 2% Acetic Acid (A1PI [2]; [10]): 36%
Percent A1PI Eluted by Fraction Based on Absorbance at 280 nm, Flowthrough (A1PI [2]; [10]): 0%
Percent A1PI Eluted by Fraction, 1M NaCl (A1PI [2]; [11]): 75%
Percent A1PI Eluted by Fraction, 2% Acetic Acid (A1PI [2]; [11]): 25%
Percent A1PI Eluted by Fraction, Flowthrough (A1PI [2]; [11]): 0%
Substance: YKFRFW
Percent Eluted by Fraction, 1M NaCl (Immunoglobulin A (IgA)): 33%
Percent Eluted by Fraction, 2% Acetic Acid (Immunoglobulin A (IgA)): 30%
Percent Eluted by Fraction, 3M NaCl (Immunoglobulin A (IgA)): 0%
Percent Eluted by Fraction, Flow (Immunoglobulin A (IgA)): 37%
Mass Protein per Eluate Fraction, 1M NaCl (Immunoglobulin A (IgA); [7]): 0.11 mg
Mass Protein per Eluate Fraction, 2% Acetic Acid (Immunoglobulin A (IgA); [7]): 0.10 mg
Mass Protein per Eluate Fraction, Flow (Immunoglobulin A (IgA); [7]): 0.13 mg
